Data on 15 molecules can be found in patent publication US20250163167A1 (SYNTHEKINE, published 2025).

T1: human IL-10 receptor (hIL-10R alpha and beta chains) on HEK-Blue IL-10 reporter cells (human, UniProt Q13651 22-578; Q08334 20-325)
T1 sequence 1: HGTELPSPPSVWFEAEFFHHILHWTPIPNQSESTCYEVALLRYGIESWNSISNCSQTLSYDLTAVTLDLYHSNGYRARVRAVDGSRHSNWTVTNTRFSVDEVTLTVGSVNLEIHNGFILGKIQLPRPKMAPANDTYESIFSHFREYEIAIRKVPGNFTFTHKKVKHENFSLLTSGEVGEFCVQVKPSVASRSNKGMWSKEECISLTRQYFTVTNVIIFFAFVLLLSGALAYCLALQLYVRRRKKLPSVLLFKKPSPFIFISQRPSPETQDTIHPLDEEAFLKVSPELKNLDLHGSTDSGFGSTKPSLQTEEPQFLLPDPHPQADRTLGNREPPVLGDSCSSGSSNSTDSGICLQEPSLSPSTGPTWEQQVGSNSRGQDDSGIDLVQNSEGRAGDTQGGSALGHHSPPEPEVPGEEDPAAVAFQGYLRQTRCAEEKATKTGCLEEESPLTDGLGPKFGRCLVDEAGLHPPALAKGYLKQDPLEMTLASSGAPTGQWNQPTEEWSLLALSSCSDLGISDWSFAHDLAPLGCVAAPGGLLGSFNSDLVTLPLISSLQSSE
T1 sequence 2: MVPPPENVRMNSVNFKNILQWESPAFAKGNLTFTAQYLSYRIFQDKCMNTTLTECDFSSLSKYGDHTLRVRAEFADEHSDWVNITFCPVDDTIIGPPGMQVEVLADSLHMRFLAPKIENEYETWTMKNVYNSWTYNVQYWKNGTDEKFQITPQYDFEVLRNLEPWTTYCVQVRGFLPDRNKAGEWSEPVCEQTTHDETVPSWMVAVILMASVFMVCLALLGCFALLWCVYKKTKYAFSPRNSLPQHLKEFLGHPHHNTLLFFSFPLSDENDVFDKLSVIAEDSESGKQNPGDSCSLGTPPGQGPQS

B1: IL10R binding molecule of SEQ ID NO: 315 (bispecific antibody)
chain: QVQLQESGGGSVQAGGSLRLSCAASGYTYSSYCMGWFRQAPGKEREGVAHIDSDGSTSYADSVKGRFTISKDNAKNTLYLQMNSLKPEDTAMYYCAADPIPGPGYCDGGPNKYWGQGTQVTVSSGGGSQVQLQESGGGSVQAGGSLRLSCAVSGYAYSTYCMGWFRQAPGKEREGVAAIDSGGSTSYADSVKGRFTISKDNAKNTLYLRMNSLKPEDTAMYYCAAVPPPPDGGSCLFLGPEIKVSKADFRYWGQGTQVTVSSASHHHHHH
B2: IL10R binding molecule of SEQ ID NO: 304 (bispecific antibody)
chain: QVQLQESGGGSVQAGGSLRLSCAASGYSNCSYDMTWYRQAPGKEREFVSAIHSDGSTRYADSVKGRFFISQDNAKNTVYLQMNSLKPEDTAMYYCKTDPLHCRAHGGSWYSVRANYWGQGTQVTVSSGGGSQVQLQESGGGSVQTGGSLRLSCAASGYTYLRGCMGWFRQAPGKEREGVAVMDVVGDRRSYIDSVKGRFTISRDNAANSVYLQMDNLKPEDTAMYYCTAGPNCVGWRSGLDYWGQGTQVTVSSASHHHHHH
B3: IL10R binding molecule of SEQ ID NO: 313 (bispecific antibody)
chain: QVQLQESGGGSVQAGGSLRLSCAASGYTYSSYCMGWFRQAPGKEREGVAHIDSDGSTSYADSVKGRFTISKDNAKNTLYLQMNSLKPEDTAMYYCAADPIPGPGYCDGGPNKYWGQGTQVTVSSGGGSQVQLQESGGGSVQAGGSLRLSCAASRFTYSSYCMGWFRQAPGKEREGVASIDSDGSTSYTDSVKGRFTISKDNAKNTLYLQMNSLKPEDTAMYYCALDLMSTVVPGFCGFLLSAGMDYWGKGTQVTVSSASHHHHHH
B4: IL10R binding molecule of SEQ ID NO: 307 (bispecific antibody)
chain: QVQLQESGGGSVQAGGSLRLSCAASGYTYSSGCMGWFRQAPGKEREAVAAINSDGSTSYADSVKGRFTISKDNAKNTLYLQMNSLKPEDTAMYYCAAEPYCSGGYPRWSVAEFGYWGQGTQVTVSSGGGSQVQLQESGGGSVQAGGSLRLSCAASGYTYSMYCMGWFRQAPGKEREGVAQINSDGSTSYADSVKGRFTISKDNAKNTLYLQMNSLKPEDTAMYYCAADSRVYGGSWYERLCGPYTYEYNYWGQGTQVTVSSASHHHHHH
B5: IL10R binding molecule of SEQ ID NO: 314 (bispecific antibody)
chain: QVQLQESGGGSVQAGGSLRLSCAASGYTYSSYCMGWFRQAPGKEREGVAHIDSDGSTSYADSVKGRFTISKDNAKNTLYLQMNSLKPEDTAMYYCAADPIPGPGYCDGGPNKYWGQGTQVTVSSGGGSQVQLQESGGGSVQAGGSLRLSCAASGYTYSMYCMGWFRQAPGKEREGVAQINSDGSTSYADSVKGRFTISKDNAKNTLYLQMNSLKPEDTAMYYCAADSRVYGGSWYERLCGPYTYEYNYWGQGTQVTVSSASHHHHHH
B6: IL10R binding molecule of SEQ ID NO: 309 (bispecific antibody)
chain: QVQLQESGGGSVQAGGSLRLSCAASGYTYSSGCMGWFRQAPGKEREAVAAINSDGSTSYADSVKGRFTISKDNAKNTLYLQMNSLKPEDTAMYYCAAEPYCSGGYPRWSVAEFGYWGQGTQVTVSSGGGSQVQLQESGGGSVQAGGSLRLSCTVSGYTYSSNCMGWFRQAPGKEREGVATIYTGGGNTYYADSVKGRFTISQDNAKNTVYLQMNNLKPEDTAMYYCAAEPLSRVYGGSCPTPTFDYWGQGTQVTVSSASHHHHHH
B7: IL10R binding molecule of SEQ ID NO: 308 (bispecific antibody)
chain: QVQLQESGGGSVQAGGSLRLSCAASGYTYSSGCMGWFRQAPGKEREAVAAINSDGSTSYADSVKGRFTISKDNAKNTLYLQMNSLKPEDTAMYYCAAEPYCSGGYPRWSVAEFGYWGQGTQVTVSSGGGSQVQLQESGGGSVQAGGSLRLSCAVSGYAYSTYCMGWFRQAPGKEREGVAAIDSGGSTSYADSVKGRFTISKDNAKNTLYLRMNSLKPEDTAMYYCAAVPPPPDGGSCLFLGPEIKVSKADFRYWGQGTQVTVSSASHHHHHH
B8: IL10R binding molecule of SEQ ID NO: 312 (bispecific antibody)
chain: QVQLQESGGGSVQAGGSLRLSCAASGYTYSSYCMGWFRQAPGKEREGVAHIDSDGSTSYADSVKGRFTISKDNAKNTLYLQMNSLKPEDTAMYYCAADPIPGPGYCDGGPNKYWGQGTQVTVSSGGGSQVQLQESGGGSVQAGGSLRLSCAASRYLYSIDYMAWFRQSPGKEREPVAVIYTASGATFYPDSVKGRFTISQDNAKMTVYLQMNSLKSEDTAMYYCAAVRKTDSYLFDAQSFTYWGQGTQVTVSSASHHHHHH
B9: IL10R binding molecule of SEQ ID NO: 260 (bispecific antibody)
chain: QVQLQESGGGSVQAGGSLRLSCAASRYLYSIDYMAWFRQSPGKEREPVAVIYTASGATFYPDSVKGRFTISQDNAKMTVYLQMNSLKSEDTAMYYCAAVRKTDSYLFDAQSFTYWGQGTQVTVSSGGGSQVQLQESGGGSVEAGGSLRLSCAASGYTHSSYCMGWFRQAPGKEREGVAAIDVDGSTTYADSVKGRFTISKDNAKNTLYLQMNSLKPEDTGMYYCAAEFADCSSNYFLPPGAVRYWGQGTQVTVSSASHHHHHH
B10: wild-type human IL-10 (Recombinant Animal-Free Human IL-10, Shenandoah Biotechnology) (ligand)
chain: SPGQGTQSENSCTHFPGNLPNMLRDLRDAFSRVKTFFQMKDQLDNLLLKESLLEDFKGYLGCQALSEMIQFYLEEVMPQAENQDPDIKAHVNSLGENLKTLRLRLRRCHRFLPCENKSKAVEQVKNAFNKLQEKGIYKAMSEFDIFINYIEAYMTMKIRN
B11: IL10R binding molecule of SEQ ID NO: 305 (bispecific antibody)
chain: QVQLQESGGGSVQAGGSLRLSCAASGYTYSSGCMGWFRQAPGKEREAVAAINSDGSTSYADSVKGRFTISKDNAKNTLYLQMNSLKPEDTAMYYCAAEPYCSGGYPRWSVAEFGYWGQGTQVTVSSGGGSQVQLQESGGGSVQAGGSLRLSCAASRYLYSIDYMAWFRQSPGKEREPVAVIYTASGATFYPDSVKGRFTISQDNAKMTVYLQMNSLKSEDTAMYYCAAVRKTDSYLFDAQSFTYWGQGTQVTVSSASHHHHHH
B12: IL10R binding molecule of SEQ ID NO: 306 (bispecific antibody)
chain: QVQLQESGGGSVQAGGSLRLSCAASGYTYSSGCMGWFRQAPGKEREAVAAINSDGSTSYADSVKGRFTISKDNAKNTLYLQMNSLKPEDTAMYYCAAEPYCSGGYPRWSVAEFGYWGQGTQVTVSSGGGSQVQLQESGGGSVQAGGSLRLSCAASRFTYSSYCMGWFRQAPGKEREGVASIDSDGSTSYTDSVKGRFTISKDNAKNTLYLQMNSLKPEDTAMYYCALDLMSTVVPGFCGFLLSAGMDYWGKGTQVTVSSASHHHHHH
B13: IL10R binding molecule of SEQ ID NO: 259 (bispecific antibody)
chain: QVQLQESGGGSVQAGGSLRLSCAASRYLYSIDYMAWFRQSPGKEREPVAVIYTASGATFYPDSVKGRFTISQDNAKMTVYLQMNSLKSEDTAMYYCAAVRKTDSYLFDAQSFTYWGQGTQVTVSSGGGSQVQLQESGGGSVQAGGSLRLSCTVSRYTASVNYMGWFRQAPGKEREGVATIFTGAGTTYYANSVKGRFTISRDNAKNTAYLQMNSLKPEDTAIYYCAVDFRGGLLYRPAYEYTYRGQGTQVTVSSASHHHHHH
B14: IL10R binding molecule of SEQ ID NO: 310 (bispecific antibody)
chain: QVQLQESGGGSVQAGGSLRLSCAASGYTYSSGCMGWFRQAPGKEREAVAAINSDGSTSYADSVKGRFTISKDNAKNTLYLQMNSLKPEDTAMYYCAAEPYCSGGYPRWSVAEFGYWGQGTQVTVSSGGGSQVQLQESGGGSVQAGGSLRLSCGASGYTYSSYCMGWFRQVPGKEREGVAVIDSDGSTSYADSVKGRFTISKDNGKNTLYLQMNSLKPEDTAMYYCAADLGHYRPPCGVLYLGMDYWGKGTQVTVSSASHHHHHH
B15: IL10R binding molecule of SEQ ID NO: 311 (bispecific antibody)
chain: QVQLQESGGGSVQAGGSLRLSCAASGYTYSSGCMGWFRQAPGKEREAVAAINSDGSTSYADSVKGRFTISKDNAKNTLYLQMNSLKPEDTAMYYCAAEPYCSGGYPRWSVAEFGYWGQGTQVTVSSGGGSQVQLQESGGGSVQAGGSLRLSCAASGYSNCSYDMTWYRQAPGKEREFVSAIHSDGSTRYADSVKGRFFISQDNAKNTVYLQMNSLKPEDTAMYYCKTDPLHCRAHGGSWYSVRANYWGQGTQVTVSSASHHHHHH

The target in the experiment is T1, human IL-10 receptor (hIL-10R alpha and …). The experiment in a line: cell-based or functional assay.
B1: the “Abs 630 (25 nM)” value was 0.51 Abs 630 and the “Abs 630 (100 nM)” value came out at 0.41 Abs 630.
For the molecule B2, the “Abs 630 (25 nM)” value was 1.96 Abs 630 and the “Abs 630 (100 nM)” value stood at 2.06 Abs 630.
For the molecule B3, the “Abs 630 (25 nM)” value was 0.47 Abs 630 and the “Abs 630 (100 nM)” value worked out at 0.39 Abs 630.
As for B4, the “Abs 630 (25 nM)” value stood at 0.44 Abs 630 and the “Abs 630 (100 nM)” value is 0.34 Abs 630.
Taken in the same sequence, the figures for B5 were 0.49 Abs 630 and 0.42 Abs 630.
Taken in the same sequence, the figures for B6 were 0.45 Abs 630 and 0.37 Abs 630.
As to B7, the “Abs 630 (25 nM)” value is 0.48 Abs 630 and the “Abs 630 (100 nM)” value came to 0.39 Abs 630.
Consider B8, for which the “Abs 630 (25 nM)” value stood at 0.48 Abs 630 and the “Abs 630 (100 nM)” value was determined as 0.39 Abs 630.
The like results for B9 were, in that order, 0.49 Abs 630 and 0.39 Abs 630.
Taken in the same sequence, the figures for B10 were 2.08 Abs 630 and 2.04 Abs 630.
For the molecule B11, the “Abs 630 (25 nM)” value was found to be 0.59 Abs 630 and the “Abs 630 (100 nM)” value amounted to 0.35 Abs 630.
The like results for B12 were, in that order, 0.69 Abs 630 and 0.49 Abs 630.
On to B13, for which the “Abs 630 (25 nM)” value was 1.85 Abs 630 and the “Abs 630 (100 nM)” value came to 1.13 Abs 630.
Taken in the same sequence, the figures for B14 were 0.51 Abs 630 and 0.44 Abs 630.
Taken in the same sequence, the figures for B15 were 0.48 Abs 630 and 0.4 Abs 630.
